Experimental findings from publication PMC7067600 (Nature structural & molecular biology, 2019) are described below.

Sequences and labels used below:
B2: StrepII-tagged Gallus gallus FANCD2 (expressed alone) (natural protein, UniProt Q68Y81 1-1439, looked up)
chain: MVSKRKLSKIDAAEESSKTDLQSRCPETKRSRISDKRAPSQGGLENEGVFEELLRTSGIILKVGEGQNEIAVDQTAFQKKLRVALEKHPSYPGVVNEFISGLESHIKDRSQFKNCLLPCTPARTEGSRTLVHSYCESLIKLLLGIKILQPAVVTLLLEKIPEFFFDVVGTFGTNFPRLIVNQFKWLDGLLDSQDLVKKLMQMLSVSPVPIQHDIITSLPEILEDSQQNEVARELSCLLKQGRRLTVPILDALSRLDLDAELLAEVRQSAMTIVPSVKLEDLPVVIKFILHNVKAADAVEVISDLRKSLDLSSCVLPLQLLGSQRKLKSQAQASSSMSQVTTSQNCVKLLFDVIKQAVRFQKDVSEAWIKAIENSTSVSDHKVLDLIVLLLIHSTNSKNRKQTEKVLRSKIRLGCMPEQLMQNAFQNHSMVIKDFFPSILSLAQTFLHSAHPAVVSFGSCMYKQAFAVFDSYCQQEVVCALVTHVCSGNETELDISLDVLTDLVILHPSLLLRYATFVKTILDSMQKLNPCQIRKLFYILSTLAFSQRQEGSYIQDDMHMVIRKWLSSSVPNHKQMGIIGAVTMMGSVALKRNEADGGLLERPELSIECDGQLSTLLDLVGFCCEQTPEVLALYYDELANLIEKQKGNLDLQLLDKFGKSLVEDFPNDFVVDLSPTVDGSFLFPVKSLYNLDEDETQGAIAINLLPLVSQSEPGRVADEMSNSRKRVVSPICLSPCFRLLRLYTGEQNNGSLEEIDALLGCPLYLTDLEVEGKLDSLSKQEREFLCSLLFYALNWFREVVNAFCQQQDAEMKGKVLTRLQNITELQNVLGKCLAATPGYVPPPATFDSEAPEGVPSINAGGPVRKKNGKKRKSDSSKACSAERTQADESSDGNQPDTELSELEKSATEKETGNPLAQLQSYRPYFRELDLEVFSVLHCGLLTKSILDTEMHTEASEVVQLGPAELCFLLDDMCWKLEHVLTPGSTRRVPFLKERGNKDVGFSHLCQRSPKEVAVCVVKLLKPLCNHMENMHNYFQTVIPNQGVVDESGLNIQEYQLMSSCYHQLLLAFRLLFAWSGFSQHENSNLLRSALQVLADRLKPGETEFLPLEELISESFQYLLNFQASIPSFQCAFILTQVLMAISEKPMTGWKREKMASLAKQFLCQSWMKPGGDREKGSHFNSALHTLLCVYLEHTDNILKAIEEISSVGVPELINSAKDGCSSTYPTLSRQTFPVFFRVMMAQLESSVKSIPAGKPSDSGEVQLEKLLKWNIAVRNFHILINLVKVFDSRPVLSICLKYGRLFVEAFLKLAMPLLDHSFKKHRDDVQSLLKTLQLSTRQLHHMCGHSKIHQDLGLTNHVPLLKKSLEQFVYRVKAMLAFNHCQEAFWVGVLKNRDLQGEEILSQASAAPEEDSAEGSEEDTADSAAEEPDGTDSDSGGAGR

The target of series [1] is B2. In words: pull-down.
The series “SEC” deals with the molecule itself. In words: SEC. On the technique in general: In gel filtration, larger molecules generally elute earlier.
In series [2] the target is FANCD2 (in co-expressed D2-I);FANCI (in co-expressed D2-I) (Gallus gallus;Gallus gallus, UniProt Q68Y81;B0I564 1-1439;1-1338, |). In words: EMSA. For orientation: In EMSA bound probe runs differently from free probe, usually more slowly.
The next series deals with FANCD2 (isolated) (Gallus gallus, UniProt Q68Y81 1-1439). In words: EMSA.
For a further series, the target named is T1, FANCI (isolated) (Gallus gallus, UniProt B0I564 1-1338).
T1 sequence: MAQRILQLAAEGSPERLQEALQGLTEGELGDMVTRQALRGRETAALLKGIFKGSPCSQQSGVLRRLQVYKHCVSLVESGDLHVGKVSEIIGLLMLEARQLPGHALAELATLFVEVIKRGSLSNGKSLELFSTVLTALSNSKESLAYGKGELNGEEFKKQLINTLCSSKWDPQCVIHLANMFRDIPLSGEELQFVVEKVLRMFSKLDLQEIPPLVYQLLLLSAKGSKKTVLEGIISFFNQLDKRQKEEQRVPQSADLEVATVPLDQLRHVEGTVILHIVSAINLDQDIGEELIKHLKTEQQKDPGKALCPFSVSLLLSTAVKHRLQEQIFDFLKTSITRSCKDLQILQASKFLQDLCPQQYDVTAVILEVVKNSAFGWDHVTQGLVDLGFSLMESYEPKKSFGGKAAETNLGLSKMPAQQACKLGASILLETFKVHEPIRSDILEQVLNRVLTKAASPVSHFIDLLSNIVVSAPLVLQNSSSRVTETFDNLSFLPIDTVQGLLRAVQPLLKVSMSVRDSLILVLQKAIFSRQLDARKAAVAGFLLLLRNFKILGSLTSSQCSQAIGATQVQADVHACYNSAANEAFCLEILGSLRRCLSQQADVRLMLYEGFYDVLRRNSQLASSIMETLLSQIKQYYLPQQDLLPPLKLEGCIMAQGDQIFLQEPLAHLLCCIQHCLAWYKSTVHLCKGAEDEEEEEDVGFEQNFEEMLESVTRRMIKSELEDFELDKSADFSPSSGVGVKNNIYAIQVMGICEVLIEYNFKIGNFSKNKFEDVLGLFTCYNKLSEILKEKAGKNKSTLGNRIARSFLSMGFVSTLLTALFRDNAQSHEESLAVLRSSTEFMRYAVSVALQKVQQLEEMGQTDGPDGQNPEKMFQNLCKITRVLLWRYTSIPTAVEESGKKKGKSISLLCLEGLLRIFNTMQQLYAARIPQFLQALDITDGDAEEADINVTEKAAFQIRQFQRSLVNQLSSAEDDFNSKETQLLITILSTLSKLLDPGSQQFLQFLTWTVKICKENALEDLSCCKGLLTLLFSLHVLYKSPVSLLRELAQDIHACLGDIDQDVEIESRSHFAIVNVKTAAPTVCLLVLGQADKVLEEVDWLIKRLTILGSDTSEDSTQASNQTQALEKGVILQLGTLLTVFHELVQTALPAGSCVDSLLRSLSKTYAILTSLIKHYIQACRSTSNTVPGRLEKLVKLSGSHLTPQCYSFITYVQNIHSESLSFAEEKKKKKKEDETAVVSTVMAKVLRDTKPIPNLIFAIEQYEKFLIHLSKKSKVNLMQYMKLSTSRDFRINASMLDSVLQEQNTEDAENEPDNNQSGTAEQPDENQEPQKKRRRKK
Nature of the series: EMSA.

B1: His-tagged Gallus gallus FANCI (expressed alone) (natural protein, UniProt B0I564 1-1338, looked up)
chain: MAQRILQLAAEGSPERLQEALQGLTEGELGDMVTRQALRGRETAALLKGIFKGSPCSQQSGVLRRLQVYKHCVSLVESGDLHVGKVSEIIGLLMLEARQLPGHALAELATLFVEVIKRGSLSNGKSLELFSTVLTALSNSKESLAYGKGELNGEEFKKQLINTLCSSKWDPQCVIHLANMFRDIPLSGEELQFVVEKVLRMFSKLDLQEIPPLVYQLLLLSAKGSKKTVLEGIISFFNQLDKRQKEEQRVPQSADLEVATVPLDQLRHVEGTVILHIVSAINLDQDIGEELIKHLKTEQQKDPGKALCPFSVSLLLSTAVKHRLQEQIFDFLKTSITRSCKDLQILQASKFLQDLCPQQYDVTAVILEVVKNSAFGWDHVTQGLVDLGFSLMESYEPKKSFGGKAAETNLGLSKMPAQQACKLGASILLETFKVHEPIRSDILEQVLNRVLTKAASPVSHFIDLLSNIVVSAPLVLQNSSSRVTETFDNLSFLPIDTVQGLLRAVQPLLKVSMSVRDSLILVLQKAIFSRQLDARKAAVAGFLLLLRNFKILGSLTSSQCSQAIGATQVQADVHACYNSAANEAFCLEILGSLRRCLSQQADVRLMLYEGFYDVLRRNSQLASSIMETLLSQIKQYYLPQQDLLPPLKLEGCIMAQGDQIFLQEPLAHLLCCIQHCLAWYKSTVHLCKGAEDEEEEEDVGFEQNFEEMLESVTRRMIKSELEDFELDKSADFSPSSGVGVKNNIYAIQVMGICEVLIEYNFKIGNFSKNKFEDVLGLFTCYNKLSEILKEKAGKNKSTLGNRIARSFLSMGFVSTLLTALFRDNAQSHEESLAVLRSSTEFMRYAVSVALQKVQQLEEMGQTDGPDGQNPEKMFQNLCKITRVLLWRYTSIPTAVEESGKKKGKSISLLCLEGLLRIFNTMQQLYAARIPQFLQALDITDGDAEEADINVTEKAAFQIRQFQRSLVNQLSSAEDDFNSKETQLLITILSTLSKLLDPGSQQFLQFLTWTVKICKENALEDLSCCKGLLTLLFSLHVLYKSPVSLLRELAQDIHACLGDIDQDVEIESRSHFAIVNVKTAAPTVCLLVLGQADKVLEEVDWLIKRLTILGSDTSEDSTQASNQTQALEKGVILQLGTLLTVFHELVQTALPAGSCVDSLLRSLSKTYAILTSLIKHYIQACRSTSNTVPGRLEKLVKLSGSHLTPQCYSFITYVQNIHSESLSFAEEKKKKKKEDETAVVSTVMAKVLRDTKPIPNLIFAIEQYEKFLIHLSKKSKVNLMQYMKLSTSRDFRINASMLDSVLQEQNTEDAENEPDNNQSGTAEQPDENQEPQKKRRRKK
One may read the stoichiometry N as the number of molecules, sites or subunits per partner or assembly. Turning to B1, in series [1], the “stoichiometry N” value was ~1 FANCI:FANCD2. As to B2, the “stoichiometry N” value in “SEC” was found to be 2.

B3: 19 bp dsDNA (dsDNA)
DNA 1: ATCGATGTCTCTAGACAGC
DNA 2: GCTGTCTAGAGACATCGAT
Take B3: in series [2], the binding result was “binds”.

B4: 39 bp dsDNA (dsDNA)
DNA 1: ATCGATGTCTCTAGACAGCTGCTCAGGATTGATCTGTAA
DNA 2: TTACAGATCAATCCTGAGCAGCTGTCTAGAGACATCGAT
For B4, the values for the binding result with FANCD2 (isolated) and with FANCI (isolated) were “no binding” and “binds”, respectively.

B5: 14 bp dsDNA (dsDNA)
DNA 1: ATCGATGTCTCTAG
DNA 2: CTAGAGACATCGAT
For the molecule B5, in series [2], the binding result is “no binding”.
